Ends that are not written are not given here.

The results in this text go back to patent US20240011997A1 (NORDIC BIOSCIENCE A S, published 2024).

In assay [1] the target is T1, non-sense peptide PGGVPGGVFY
T1 construct: Control peptide in the specificity test
T1 peptide: PGGVPGGVFY
The experiment in a line: Competitive ELISA on coated Biotin-…. How it is done:
(§1) Based on the collected antibodies the ELP-3 assay was developed as competitive ELISA assay. A 96-well streptavidin-coated microtiter plate (Roche, Basel, Switzerland) was coated with 100 ul biotinylated screening peptide (Biotin-[…] (SEQ ID NO: 5)) dissolved in assay buffer for 30 min at 20° C. with shaking. Plates were washed five times in washing buffer (20 mM TRIS, 50 mM NaCl, pH 7). Sample/standard/control (20 ul) was added and followed by addition of (100 ul) monoclonal antibody and incubated for 3 h at 4° C. with shaking. After incubation, plates were washed five times in washing buffer. A volume of 100 ul of secondary HRP labeled goat anti-mouse antibody was added followed by 1 h incubation at 20° C. with shaking. Plates were then washed and TMB was added and the plate was analyzed by a SpectraMax M reader (Molecular Devices, Ca, USA) at 450 nm with 650 nm as the reference. A standard curve was plotted using a 4-parametric mathematical fit model. Each ELISA plate included kit controls to monitor inter-assay variation. All samples were measured within the range of the assay. All samples below the level of lower limit of quantification (LLOQ) were assigned the value of LLOQ.
(§2) Supernatants from antibody producing hybridomas were screened for reactivity against standard peptide, elongated peptide, and truncated peptide in an indirect ELISA. The peptide Biotin-[…] […]

Assay [2] addresses T2, Elongated peptide LPGGYGLPYTT (human).
T2 construct: Standard peptide extended by one threonine at the C-terminus; also called C-extended elongated version
T2 peptide: LPGGYGLPYTT
The experiment in a line: Competitive ELISA on coated Biotin-LPGGYGLPYT
As to the method: as §1, §2

Assay [3] has as its target T3, Standard peptide LPGGYGLPYT (human).
T3 construct: Synthetic decapeptide with a free C-terminus; also called calibrator peptide; selection peptide
T3 peptide: LPGGYGLPYT-OH
The experiment in a line: Indirect or competitive ELISA with the standard peptide as calibrator.

For assay [4], the target named is T4, Proteinase 3 (PR3; EPC ML734) (UniProt P24158 28-248).
T4 construct: also called protease control
T4 sequence (looked up): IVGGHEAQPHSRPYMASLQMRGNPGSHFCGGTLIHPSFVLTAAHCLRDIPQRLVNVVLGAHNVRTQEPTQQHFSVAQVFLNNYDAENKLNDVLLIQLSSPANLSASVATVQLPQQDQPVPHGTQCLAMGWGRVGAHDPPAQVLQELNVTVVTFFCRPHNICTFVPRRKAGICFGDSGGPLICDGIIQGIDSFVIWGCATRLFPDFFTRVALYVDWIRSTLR
Kind of assay: ELP-3 competitive ELISA on in vitro cleavage samples.

Assay [5] has as its target T5, Human neutrophil elastase (HNE) protein (Abcam, ab91099) (human, UniProt P08246 30-247, limits assumed).
T5 construct: also called protease control
T5 sequence (looked up): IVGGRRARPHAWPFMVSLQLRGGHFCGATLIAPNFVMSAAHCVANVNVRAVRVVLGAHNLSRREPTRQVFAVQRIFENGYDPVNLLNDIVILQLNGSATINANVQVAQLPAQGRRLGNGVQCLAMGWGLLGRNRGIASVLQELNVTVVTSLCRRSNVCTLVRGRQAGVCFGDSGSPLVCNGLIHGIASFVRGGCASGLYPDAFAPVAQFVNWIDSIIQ
Described as above.

The target of assay [6] is T6, intact elastin (Sigma, E7152) (human, UniProt P15502 27-786, limits assumed).
T6 construct: Uncleaved elastin control of the in vitro cleavage experiment
T6 sequence (looked up): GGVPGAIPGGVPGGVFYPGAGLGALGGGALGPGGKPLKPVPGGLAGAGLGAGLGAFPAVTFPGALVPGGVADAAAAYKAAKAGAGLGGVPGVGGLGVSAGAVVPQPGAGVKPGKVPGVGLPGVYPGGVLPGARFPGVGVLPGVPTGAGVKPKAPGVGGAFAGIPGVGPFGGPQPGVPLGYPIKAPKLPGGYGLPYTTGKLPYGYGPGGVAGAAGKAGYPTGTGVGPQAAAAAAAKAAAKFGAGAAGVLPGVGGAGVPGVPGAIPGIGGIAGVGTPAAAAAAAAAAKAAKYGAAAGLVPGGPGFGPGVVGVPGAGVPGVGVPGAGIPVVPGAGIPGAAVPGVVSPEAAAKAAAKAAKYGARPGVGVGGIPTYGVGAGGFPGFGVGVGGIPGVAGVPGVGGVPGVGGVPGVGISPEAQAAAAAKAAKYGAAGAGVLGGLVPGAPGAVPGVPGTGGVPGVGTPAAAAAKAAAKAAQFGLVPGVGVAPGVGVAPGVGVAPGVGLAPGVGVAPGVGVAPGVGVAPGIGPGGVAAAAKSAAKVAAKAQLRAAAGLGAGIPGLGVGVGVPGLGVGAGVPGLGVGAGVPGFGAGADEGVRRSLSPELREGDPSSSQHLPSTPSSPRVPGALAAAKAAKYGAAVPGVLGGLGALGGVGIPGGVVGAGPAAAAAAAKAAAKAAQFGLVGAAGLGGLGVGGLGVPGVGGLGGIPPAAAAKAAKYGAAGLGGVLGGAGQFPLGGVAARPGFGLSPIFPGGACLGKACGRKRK
Described as above.

B1: monoclonal antibody clone NBH116/6A10-E7-D12 (antibody, mouse IgG1, kappa, V domains shown)
VH: EVKLVESGGGLVQPGDSLRLSCATSGFTFTDYYMSWVRQPPGKALEWLGFIRNKANGYTTEYSASVKGRFTISRDNSQSILYLQMNTLRAEDSATYYCARDIITTPSWFGYWGQGTLVTVSA
VL: DIQMNQSPSSLSASLGDTITITCHASQNINVWLSWYQQKPGNIPKLLIYKASNLHTGVPSRFSGSGSGTGFTLTISSLQPEDIATYYCQQGQSYPLTFGAGTKLELKR
notes: also called ELP-3 antibody; the selected antibody
Turning to B1, the binding result in assay [1] is on record as “no binding”; in assay [2], “no binding”; in assay [3] it was “binds”; in assay [4] it was “no binding”; in assay [5], “no binding”; in assay [6], “no binding”.
